Test: soluble on expression in E. coli; label from the status in PepcDB or PDB records

Sequence | soluble on expression in E. coli
AHHHHHHGSKILYPTDFSEVSQKALTECVPSIILGIGEGSELILLHVVDITASEIGALELAEVDKEELNNLASQLREKGIKVKPIVRIGIPSLEISEVAKEENVDLIIIPSKGENILRQMLLGSTASNLARITHKPVLLLRYEVENGEIKSLQDCSRIFEKPLVALDLSKCSEKIIETIKDLPGVREAVLFHVVDYGKVEELENNIKNAKEKLSKYGKLLPWKTKIEVQAGIASKGIIGAAIDNNVTLVVIGKKGRSVLKDLLLGSTAERVIRDCKLPTLLIPCE | not soluble
MDRVDVVADLNDPLSCFPDDSVIEIYAHHVLEHVRNFIQLMQEVHRVCMRDSTVTIVVPHYSNQLAYSDPTHVRFFGLYTMCYFVERVFQPFKRKVPDFYIKEKFLLCEVVYDFEPKNTFLGRLFTRRVQLFINANPKRQEFYERYLCRFFPVASVRYVLSPVKLEHHHHHH | soluble
MANDGGAKLSKNLLRMKFMQRGLDAEVKKQLDEEEKRIISDEHWFLDLPELKAKENHIIEERSFVPCEDLVYGRMSFKGFNPDVEKLMLLMNAPREEEDEEEEDESMNKMETDITDEEMAKRYQSLVESMRKKFAKKRDRSAVSNKEDVNCNVTDDIRPKRAFMKPQD | soluble
MHHVYVIECSDGTYYTGYTTDVQRRVAEHNAGDGAKYTRGRTPVTLRHTESFDSKSEAMRREYRIKQLSRAQKEALFLEHHHHHH | soluble
MIFMRKVVAEVSIIPLGKGASVSKYVKKAIEVFKKYDLKVETNAMGTVLEGDLDEILKAFKEAHSTVLNDVDRVVSSLKIDERKDKENTIERKLKAIGEL | soluble
MSLVLLYTPKQKTKNVQTITADILDLDYQGLGVAKINGKTWFIENALPHEKVECRILEDKRQYGHAIVKKWRVKSPERLEPKCAHFMRCGGCQGQHIPIEMQRKAKESALFKRLSKLQSEPISFQPMICGDAWAYRRRVRLSLWFNPSTKQIEMGFRQKNTNDLIPVQSCEVAEPAINYLLPKLTALLEKFSAPKQLGHIELVAADNGVAMLLRYTKNLAEIDRTLLLKFAEQEKLMLFLQSDKGIEQIYGDAPYYQFSDGIKLHFDIRDFIQVNSALNEPMVNTALDWLELSQQDCVLDLFCGMGNFTLPLAKRVKSAVGIEGVFEMVQKAAQNAERNQIKNIEFFQADLDQSFVEQPWANQSFNKILLDPPRSGAAFALNALCELKAEKILYVSCNPATLVRDAEILCNFGYKIEKSAVIDMFPHTGHLESITLFTTKEGHHHHHH | soluble
MSLKSESKGGSNALVVSTFGLSEDIVKKDIIAPFEKENEAKVTLEVGNSADRFTKLKNNPNAGIDVIELAQANAAQGGKDGLFEKITEKEVPNLSQLTPGAKEVFESGAGVPIAVNSIGIVYNKEKLGKEIKNWDDLWSADLKGKISVPDVATTAGPLMLYVASEHAGQDITKDNGKAAFEAMKELKPNVVKTYSKSSDLANMFQSGEIEAAVVADFAVDIIQGAAENVTYIVPESGTYANYNTVNIPKKAQNKETAFKFVNARISEESQKAKAISLNEGPTNQQVTLSEKEAKNKTYGAIAERAKTVDFNFINSQLADWIDQWNRTMNQEGHHHHHH | soluble
MSLGEEAAGEGGEAEKTITINVGLLVDETGPTSDVGKGYSLGAELAFKYFNEKGIYTKDGVRVNINYIKRDYAYNPTTAEEYYREFRDRYGVIAIIGWGTADTEKLSDQVDTDKITYISASYSAKLLVKPFNFYPAPDYSTQACSGLAFLASEFGQGKLALAYDSKVAYSRSPIGAIKKAAPSLGLQVVGDYDLPLRATEADAERIAREMLAADPDYVWCGNTISSCSLLGRAMAKVGLDAFLLTNVWGFDERSPQLIGEGGYGKVFGISPFIYPMFGQDVEGIQTIFEAARMNGVSEDQINLRVVQGFVNVWLLIKAIESVTSQDLQERGGEALKEALEANTFDLGGITADTIDYEPGFHLAYRKVFIIKLGENGELQLMGKFEAPSQVDCARYTIEEGHHHHHH | soluble
MGSDKIHHHHHHMKGSTDLESRLPSAGAYGDRFASYFKLAKASVFKTGSLRTGEIAYTETSGYCHKPEPSVPVPPEDAFLVQTQLQDYPNHISWEDGRPGIVGTLRAGHTILRDLQRKPNAIIMGPHHTVHFYIPRATFNTVAEDLEARSISELAYVPAQPIDDDVIRGLIGTVRAAIKAPEETNRLFLDHLMMAAAVHLAQTYGGLKPRSLQHRGGLAPWQARLAIELLEGDLTGQLPLKDVAAACKLSVSYFSKAFCKTTGLAPHQWLLYRRVERAKSAMINEKTTLAEVALSCGFSDQSHFTRVFVRLVGTSPATWRRARNL | not soluble
MSLKIKVGLIFSGIACLFLTACVNQVKQNTTFENTLTQKYCGDDFFNQNLEKIKKNDDVIYTGLNAGLIARNCGDFNKSNVFFDAVEESYKYDVDLENVSPKAAKFIGTTLLNDNIVDYDGSLYERIMVNIYKALNYMEEDDYENARVEFNRVLMRQDKAKEYFAKEIEKNRADLDKAKEDKNYDKNMNENSKVIEAQYDNLFKEFDTTKNFINPYATYLASIFFFMDKDYRKAADLFREVAIIYPKNKTIKKEAKIFKEYATKIKVKKAKKYVFVVYENGFGVVKDEFALTLPFIVDKKIISTNIALQTLKKREASFANLNINGQNTNDFVDLDNIVATEFKINMPAMIAKALAQTIIKTTLNVAVANNDSTGGWLSLATAVATAATNKADVRSWRGLPKSIAIATIENDGNLEIKDPQGNILFQKSLDKNKNALVIVRSFAPYLPASVAIMEKEGHHHHHH | not soluble
MGSDKIHHHHHHMSRLVRSATLSRYTEVARSVGLDPLRILAEVGLPRTCLDAGDNLVSANAVCRLLEMSAADSDAEDFGLRMGEGRQLSVLGPLGMAVRDSPTLRDALGAMVRYITLHSEALFLGVEEREGALVIRVSLIVEHAGSTRQADEMVVVSLYRMLQELIGPGWRARRICLSHEAPRSLASHLRVFGRAVDFGCDFNGIVCELKDMDAMPRAARPELAQYAHAYLDSLSARATLSMTENVRRMVLSLLPSGNCSVERVASQLGVDRRTVHRKLLQEGASFSSILDEVRATLALQYLRHLERPVSYVAVLLGFSMQSAFSRWFRDHFGCSPSAWRSEGMQPARPVPRQPLLAASPEQRM | not soluble
MGSDKIHHHHHHMKVLLTRPEGRNQSMVDALNERGIEHCVTPLLCVEATPALPPETSHPLANVDMVVCISANAVSFADDTFKANDANVKGWPKVPYFAVGHATWEALQQIDIDALEAPDDCQQTEGLLTLPTLQHIQGKKITIIRGVGGREALAEQLTSRGAQVRYWEVYQRACPPLDGTIITQQWIDLGIDTVVVTSGEVLDNLINLVPKELFAWLRSCHIIVPSNRVEAQAHAFGITQVTNANAANSKAVLNALKL | not soluble
MGSDKIHHHHHHMLENRVKTKQIFIGGVAIGGDAPISTQSMTFSKTADIESTKNQIDRLKLAGADLVRVAVSNEKDALALKELKKVSPLPLIADIHFHYKFALIAAQSVDAIRINPGNIGSKEKIKAVVDACKEKNIPIRIGVNAGSLEKQFDQKYGPTPKGMVESALYNAKLLEDLDFTNFKISLKASDVIRTIEAYRMLRPLVIYPFHLGVTEAGNLFSSSIKSAMALGGLLMEGIGDTMRVSITGELENEIKVARAILRHSGRLKEGINWISCPTCGRIEANLVDMAIKVEKRLSHIKTPLDISVMGCVVNALGEAKHADMAIAFGNRSGLIIKEGKVIHKLAEKDLFETFVIEVENLAKEREKSLKD | not soluble
MSLEKLNLICVDDQREVLSAVLQDLEPLNKWLNIEDCESADEVLELMDELDADGEMIALIISDHVMPGKTGVELLTEISKDSRFVRTRKVLLTGQATHTDTINAINSAGIDRYFEKPWQANQLIECVRNLVTQYIFDEGHHHHHH | not soluble
MAQHFRLSTAARQLSSDSLVCLPDAEIFQRLKQARWGNADNFVCPHCHIRHLAYFISTRKQWQCKHCQHRFSITAGTIFQGAKLPLRKILLAILYFATESKGLSAIALSHKLNVQYKTAWVLLHKFRESLDKAKDLTPLNGEVHIDGAYTNYYIRPKNFRHKRIDRRKKRYQRADKSCVLVFRQRAANQAVMKGADRSIVALVKEENTKDVLELTQRLVKPNSTIHADENPAYDCLAFHYDLWRVNHSQEYRSIEGITNNLAESFFARLRRAITGIYHKMSNKYLMYYANEMVWREDHRRKSVKEKFEQLLTCCLNTLPSRDFTGYWQGNKKGEAVFGLASLTASNDLHYLKAALEHHHHHH | soluble
MSCKPNILVLFYGYGSIVELAKEIGKGAEEAGAEVKIRRVRETLPPEFQSRIPFDKVKDIPEVTLDDMRWADGFAIGSPTRYGNMAGGLKTFLDTTAILWKDNVLYGKPVTFFTEASTVHGGHETTILTMSTYAYHFGMIIVPIGYGIPELFQTTTGGGPYGATHLGSKEELDEMERKIARFQGKRITEVAKAIKCCNK | soluble
MARKIRKLRKAEVNYITIKATLEAEKKEDYLKLALLTEKFKRAVELSIRLQLKGVKKSEGVKEVSRLILNNWWYSDSAWDYAKMLRKGAERS | not soluble
MAHHHHHHMRRVRLSPPLLRFPGSLFPKKNLFSKAIPLAIQTCRLFVSYSEPSYYYYYYYHNSCMCEVIRSARDSAERMGFGEGWGVCGASTRRQHRVGLFSSGSSSEHLPCMKGWSGRKDVSLIYAYHTCLLHFLLLHTCV | not soluble
MTTQITAEDVEAYLGTRENSPTMSDTVDAAVDLVESWKSTPQEKWPPRWRRGCIMLAARMDRRRNSPAGVDTMGEIGVVYVSRKDPDIAQLLEIGDFSKPIAR | not soluble
MSLADFTHLLRPSNFDELIGQDHLSKDKAPLRVLCQKGVLGHSFFFGPSGTGKTSIARIIAKTMELPFYEFNATSIKIEQLRAIFEQYKNTLQKPLIFIDEVHRLAKNQQEVLLPVMENNSALIIGASTENPFFSLTSAIRSRSMLFELHHISNEALSRLLRRALDSSDITCSDEALEYLIKSSGGDARSMLKLLEFASNIGTHITLDILKSLRPNALSVGSSEAGVHYDLSSAMIKSIRGSDMDAAIYYLARLIDGGESAEFIARRLVILASEDVGNANPQALTLATSAMTSVSKIGYPEARIILSQAVIYLCASPKEGHHHHHH | not soluble
MKDWFMNLLYYLKRPFIRLSRFRYRCGYGVHSPFAFSLITDVIYEKMPYYAYDLLKVEQKKRITTQRWEKGIPRINRLLFRLVNKVQPATIIEVGQPSAASLYLQSAKPSAGYLFASDLSELFLDADTPVDFLYLNDYRNPALLEEVFNICSRRTTPNSLFVVHGICYSKAMKNLWKQLQNDERVGITFDLYDAGLLFFDTTKIKQHYIVNF | not soluble
MLGIVIATHGALSDGAKDAATVIMGATENIETVNLNSGDDVQALGGQIKTAIENVQQGDGVLVMVDLLSASPYNQAVLVINELEPALQKKIFVVSGTNLPMVLEAINHQLLGTPIAEAAQAIVAQGKESVQAWDISMTSFEDEEDEDDDF | soluble
STLKGALSVKFDVKCPADKFFSAFVEDTNRPFEKNGKTEIEAVDLVKKTMTIQMSGSEIQKYFKTLKGSIAVTPIGVGDGSHVVWTFHFEKVHKDIDDPHSIIDESVKYFKKLDEAILNFKE | soluble
MTVLEAVLEIQAITGSRLLSMVPGPARPPGSCWDPTQCTRTWLLSHTPRRRWISGLPRASCRLGEEPPPLPYCDQAYGEELSIRHRETWAWLSRTDTAWPGAPGVKQARILGELLLV | not soluble
